# Test results published in patent US20090298167A1 (Pfizer, published 2009).
# Numbering of substitutions follows the chain as printed.
# T1: human gamma common chain expressed on CHO cells (human, UniProt P31785 23-369)
# T1 construct: whole, on cells; Control protein; also called human IL-2R-γ common subunit; human gamma (γ) common chain
# T1 sequence (looked up): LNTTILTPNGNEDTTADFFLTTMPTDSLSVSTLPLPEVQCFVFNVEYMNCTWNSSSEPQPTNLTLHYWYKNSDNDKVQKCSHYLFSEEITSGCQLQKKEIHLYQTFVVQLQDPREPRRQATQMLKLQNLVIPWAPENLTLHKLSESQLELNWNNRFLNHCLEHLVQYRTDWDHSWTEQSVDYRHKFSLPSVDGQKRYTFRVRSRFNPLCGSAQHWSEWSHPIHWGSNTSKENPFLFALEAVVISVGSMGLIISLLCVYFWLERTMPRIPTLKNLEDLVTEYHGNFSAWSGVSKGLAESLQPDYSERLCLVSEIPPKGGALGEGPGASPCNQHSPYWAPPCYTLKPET
# B1: scFv L14 (scFv)
# scFv: QVQLQESGPGLVKTSETLSLTCAVSGYSISSGYYWGWIRQPPGKGLEWIGSISHTGNTYYNPPLKSRVTISVDTSKNQFSLKLSSVTAADTAVYYCARGGGISRPEYWGKGTLVTVSSGGGGSGGGGSGGGGSALSSELTQDPPVSVALGQTVTLTCQGDSLRTYYASWYQQKSGQAPILLLYGKHKRPSGIPDRFSGSTSGDTASLTITGAQAEDEADYYCMARSRKGNPHVLFGGGTQLTVL
# B2: scFv L18 (scFv)
# scFv: B1 scFv with M223V, A224T, R227V
# B3: scFv L15 (scFv)
# scFv: B1 scFv with M223S, A224T, S226A, R227I, K228H
# B4: scFv L20 (scFv)
# scFv: B1 scFv with M223V, A224S, R227A
# B5: scFv L21 (scFv)
# scFv: B1 scFv with M223A, A224T, S226A, R227V, K228R
# B6: scFv L19 (scFv)
# scFv: B1 scFv with M223V, S226A, R227V, K228R
# B7: scFv L25 (scFv)
# scFv: B1 scFv with M223T, A224T, R227N
# B8: scFv L16 (scFv)
# scFv: B1 scFv with M223V, A224T, R227A
# B9: scFv L17 (scFv)
# scFv: B1 scFv with M223S, A224T
# B10: scFv L24 (scFv)
# scFv: B1 scFv with M223I, R227N
# B11: AbA (antibody, human IgG1, V domains shown)
# VH: QVQLQESGPGLVKPSETLSLTCAVSGYSISSGYYWGWIRQPPGKGLEWIGSISHTGNTYYNPPLKSRVTISVDTSKNQFSLKLSSVTAADTAVYYCARGGGISRPEYWGQGTLVTVSS
# VL: SSELTQDPAVSVALGQTVRITCQGDSLRTYYASWYQQKPGQAPVLVIYGKHKRPSGIPDRFSGSSSGNTASLTITGAQAEDEADYYCVARSVVGNPHVLFGGGTQLTVL
# notes: Full-length human IgG1 / human lambda, transient, conditioned medium; Framework limits derived; also called VHP/VL2
# B12: AbB (antibody, human IgG1, V domains shown)
# VH: B11 VH
# VL: B11 VL with A89S, S91A
# notes: Full-length human IgG1 / human lambda, transient, conditioned medium; Framework limits derived; also called VHP/VL3
# B13: AbK (antibody, human IgG1, V domains shown)
# VH: B11 VH with G99F, G100M, I102F, S103G
# VL: B11 VL with A89S, S91A
# notes: Full-length human IgG1 / human lambda, transient, conditioned medium; Framework limits derived; also called VH3/VL3
# B14: AbI (antibody, human IgG1, V domains shown)
# VH: B11 VH
# VL: B11 VL with V88I, V92N, V93K
# notes: Full-length human IgG1 / human lambda, transient, conditioned medium; Framework limits derived; also called VHP/VL24
# B15: AbH (antibody, human IgG1, V domains shown)
# VH: B11 VH
# VL: B11 VL with S91A, V93R
# notes: Full-length human IgG1 / human lambda, transient, conditioned medium; Framework limits derived; also called VHP/VL19
# B16: AbJ (antibody, human IgG1, V domains shown)
# VH: B11 VH with G99F, G100M, I102F, S103G
# VL: B11 VL with V88N, A89S, S91D, V92S, V93S
# notes: Full-length human IgG1 / human lambda, transient, conditioned medium; Framework limits derived; also called VH3/VLP
# B17: AbM (antibody, human IgG1, V domains shown)
# VH: B11 VH with G99F, G100F, I102F, S103G
# VL: B11 VL with A89T, S91N, V92R, V93Y
# notes: Full-length human IgG1 / human lambda, transient, conditioned medium; Framework limits derived; also called VH6/VL13
# B18: AbF (antibody, human IgG1, V domains shown)
# VH: B11 VH
# VL: B11 VL with V88S, A89T, V92R, V93K
# notes: Full-length human IgG1 / human lambda, transient, conditioned medium; Framework limits derived; also called VHP/VL17
# B19: AbC (antibody, human IgG1, V domains shown)
# VH: B11 VH
# VL: B11 VL with V88S, A89S, V92R, V93H
# notes: Full-length human IgG1 / human lambda, transient, conditioned medium; Framework limits derived; also called VHP/VL11
# B20: AbN (antibody, human IgG1, V domains shown)
# VH: B11 VH with G99F, G100F, I102F, S103G
# VL: B11 VL with V88I, V92N, V93K
# notes: Full-length human IgG1 / human lambda, transient, conditioned medium; Framework limits derived; also called VH6/VL24
# B21: AbE (antibody, human IgG1, V domains shown)
# VH: B11 VH
# VL: B11 VL with V88M, V92R, V93K
# notes: Full-length human IgG1 / human lambda, transient, conditioned medium; Framework limits derived; also called VHP/VL14
# Molecular target: T2, murine IL-21R expressed on cells (murine, UniProt Q9JHX3 20-529)
# T2 sequence (Q9JHX3 20-529 limits assumed): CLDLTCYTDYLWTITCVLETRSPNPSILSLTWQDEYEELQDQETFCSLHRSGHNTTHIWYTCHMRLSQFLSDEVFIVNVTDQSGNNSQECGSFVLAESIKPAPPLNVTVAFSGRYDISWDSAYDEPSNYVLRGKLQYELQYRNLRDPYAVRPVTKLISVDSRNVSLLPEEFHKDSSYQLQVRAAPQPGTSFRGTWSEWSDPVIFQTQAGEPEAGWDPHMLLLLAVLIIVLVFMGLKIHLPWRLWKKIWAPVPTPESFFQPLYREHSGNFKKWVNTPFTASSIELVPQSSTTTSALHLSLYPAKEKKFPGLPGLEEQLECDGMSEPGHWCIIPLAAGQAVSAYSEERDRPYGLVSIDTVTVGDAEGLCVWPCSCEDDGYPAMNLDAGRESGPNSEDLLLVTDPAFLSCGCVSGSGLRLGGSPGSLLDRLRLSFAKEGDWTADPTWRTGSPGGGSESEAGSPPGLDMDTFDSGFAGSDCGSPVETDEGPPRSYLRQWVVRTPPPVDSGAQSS
# Assay: cell-based or functional assay
row,Binder,IC50 (nM) in Murine IL-21R-BaF3 Neutralization Assay
1,B1,6.49 nM
2,B2,8.34 nM
3,B3,53.5 nM
4,B4,15.4 nM
5,B5,162 nM
6,B6,13.6 nM
7,B7,15.6 nM
8,B8,4.71 nM
9,B9,2.66 nM
10,B10,3.73 nM

# Molecular target: T3, human IL-21R expressed on cells (human, UniProt Q9HBE5 20-538)
# T3 sequence (Q9HBE5 20-538 limits assumed): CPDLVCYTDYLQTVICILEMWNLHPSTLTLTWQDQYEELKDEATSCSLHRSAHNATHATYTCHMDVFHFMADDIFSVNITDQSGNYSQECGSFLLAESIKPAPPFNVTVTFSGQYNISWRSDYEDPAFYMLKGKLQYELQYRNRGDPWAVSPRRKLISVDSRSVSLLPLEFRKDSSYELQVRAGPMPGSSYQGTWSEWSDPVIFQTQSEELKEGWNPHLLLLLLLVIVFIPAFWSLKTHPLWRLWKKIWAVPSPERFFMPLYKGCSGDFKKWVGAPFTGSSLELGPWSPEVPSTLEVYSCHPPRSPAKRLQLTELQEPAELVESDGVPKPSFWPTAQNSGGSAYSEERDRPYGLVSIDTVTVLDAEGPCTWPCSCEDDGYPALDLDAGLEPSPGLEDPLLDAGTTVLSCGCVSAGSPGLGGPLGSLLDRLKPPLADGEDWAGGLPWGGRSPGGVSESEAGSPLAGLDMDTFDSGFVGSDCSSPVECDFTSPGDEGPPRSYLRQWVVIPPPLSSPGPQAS
# Assay: cell-based or functional assay
Binder,IC50 (nM) in Human IL-21R-BaF3 Neutralization Assay,IC50 (nM) in Human IL-21R-TF1 Neutralization Assay
B1,3.2 nM,33.5 nM
B2,3.7 nM,54.4 nM
B3,3.3 nM,30.3 nM
B4,3.1 nM,57.5 nM
B5,9.4 nM,~100 nM
B6,4.5 nM,35.3 nM
B7,3.7 nM,33.1 nM
B8,3.7 nM,67.4 nM
B9,1.6 nM,60.3 nM
B10,2.4 nM,18.7 nM

# Molecular target: T2, murine IL-21R expressed on cells
# Assay: cell-based or functional assay
# Remark: another data set of the same source
row,Binder,Murine IL-21R-BaF3 Proliferation IC50
1,B11,0.08 nM
2,B12,0.421 nM
3,B13,0.079 nM
4,B14,0.224 nM
5,B15,0.327 nM
6,B16,0.4 nM
7,B17,0.125 nM
8,B18,0.304 nM
9,B19,0.03 nM
10,B20,0.435 nM
11,B21,0.04 nM

# Molecular target: T3, human IL-21R expressed on cells
# Assay: cell-based or functional assay
# Remark: another data set of the same source
Binder,Human IL-21R-BaF3 Proliferation IC50,Human IL-21R-TF1 Proliferation IC50
B11,0.97 nM,3.8 nM
B12,1.14 nM,3.34 nM
B13,0.98 nM,4 nM
B14,1 nM,3.8 nM
B15,0.94 nM,3.64 nM
B16,0.65 nM,4.6 nM
B17,1.08 nM,4.22 nM
B18,0.54 nM,2.41 nM
B19,0.82 nM,3.36 nM
B20,0.5 nM,1.59 nM
B21,0.56 nM,2.28 nM

# Molecular target: T4, rat IL-21R expressed on cells (rat)
# T4 construct: whole, on cells; Transiently transfected CHO-PA-Dukx cells
# Assay: cell ELISA on transfected CHO cells, 13 nM IgG
# Description: (§1) A subset of binding proteins was tested for binding to rat, cynomolgus monkey, human IL-21R, or human IL-2R-γ common subunit expressed transiently on the surfaces of CHO-PA-Dukx cells. Cells were transfected 48 hr prior to the assay. On the day of the assay, cells were washed gently 5× in PBS containing 0.9 mM CaCl₂ and 0.45 mM MgCl₂ (PBS/CaMg) on an automated plate washer (Titertek, Huntsville, Ala.), and blocked for 1 hr at RT in PBS/CaMg/5% nonfat dry milk. Conditioned media from transiently expressed anti-IL-21R IgGs were serially diluted in blocking buffer and added to the cells in the blocked plates for 1 hr at RT. Cells were washed 5× with PBS/CaMg and then incubated with horseradish peroxidase-conjugated anti-human IgG for 1 hr at RT. Cells were then washed 10× in PBS/CaMg and all of the wash buffer was removed. Cells were incubated with 100 μl TMB until the color reaction reached saturation, stopped with 100 μl of 0.18 M H₂SO₄, and read at A450 on a Perkin Elmer ENVISION™ plate reader.
row,Binder,A450 at 13 nM Ab in cell ELISA
1,B11,1.12 A450
2,B12,1.09 A450
3,B13,1.18 A450
4,B14,1.09 A450
5,B15,1.1 A450
6,B16,1.26 A450
7,B17,0.78 A450
8,B18,1 A450
9,B19,0.999 A450
10,B20,0.702 A450
11,B21,1.11 A450

# Molecular target: T5, cynomolgus monkey IL-21R expressed on CHO cells (cynomolgus monkey)
# T5 construct: whole, on cells
# Assay: cell ELISA on transfected CHO cells, 13 nM IgG
# Description: as §1
row,Binder,A450 at 13 nM Ab in cell ELISA
1,B11,1.35 A450
2,B12,1.33 A450
3,B13,1.34 A450
4,B14,1.21 A450
5,B15,1.32 A450
6,B16,1.27 A450
7,B17,1.45 A450
8,B18,1.46 A450
9,B19,1.28 A450
10,B20,1.5 A450
11,B21,1.42 A450

# Molecular target: T3, human IL-21R expressed on cells
# Assay: cell ELISA on transfected CHO cells, 13 nM IgG
# Description: as §1
row,Binder,A450 at 13 nM Ab in cell ELISA
1,B11,1.2 A450
2,B12,1.15 A450
3,B13,1.36 A450
4,B14,1.24 A450
5,B15,1.35 A450
6,B16,1.22 A450
7,B17,1.2 A450
8,B18,1.35 A450
9,B19,1.22 A450
10,B20,1.21 A450
11,B21,1.26 A450

# Molecular target: T1, human gamma common chain expressed on …
# Assay: cell ELISA on transfected CHO cells, 13 nM IgG
# Description: as §1
row,Binder,A450 at 13 nM Ab in cell ELISA
1,B11,0.111 A450
2,B12,0.107 A450
3,B13,0.108 A450
4,B14,0.107 A450
5,B16,0.126 A450
6,B19,0.137 A450
7,B20,0.136 A450
